Measurements taken from US20140348865A1, “[…] ON AN HIV-1 V1V2 SITE-OF-VULNERABILITY” (The United States of America, as represented by the …, priority 2011, published 2014).

How the values were obtained:
[1] = biological target: Env of HIV-1 strain QH209 (pseudovirus) (HIV-1)
[2] = biological target: Env of HIV-1 strain 0439 (pseudovirus) (HIV-1)
[3] = biological target: Env of HIV-1 strain CNE56 (pseudovirus) (HIV-1)
[4] = biological target: Env of HIV-1 strain 398 (pseudovirus) (HIV-1)
1JO8-ZM109 V1V2 scaffold = experiment: ELISA, antibody dilution series on the scaffold
[5] = biological target: Env of HIV-1 strain 3873 (pseudovirus) (HIV-1)
[6] = biological target: Env of HIV-1 strain 6471 (pseudovirus) (HIV-1)

## monoclonal antibody PG9
Q461.e2
  neutralization IC50: 3.01 µg/mL
6540.v4.c1
  neutralization IC50: 0.035 µg/mL
Q168.a2
  neutralization IC50: 0.106 µg/mL
0260.v5.c36
  neutralization IC50: 2.18 µg/mL
MS208.A1
  neutralization IC50: 0.071 µg/mL
Q769.d22
  neutralization IC50: 0.007 µg/mL
Q842.d12
  neutralization IC50: 0.005 µg/mL
R1166.c1
  neutralization IC50: 1.55 µg/mL
R2184.c4
  neutralization IC50: 0.2 µg/mL
620345.c1
  neutralization IC50: 0.393 µg/mL
Q769.h5
  neutralization IC50: 0.002 µg/mL
KER2008.12
  neutralization IC50: 0.017 µg/mL
CNE55
  neutralization IC50: 0.146 µg/mL
BI369.9A
  neutralization IC50: 0.029 µg/mL
MB201.A1
  neutralization IC50: 0.024 µg/mL
BB201.B42
  neutralization IC50: 0.014 µg/mL
M02138
  neutralization IC50: 0.122 µg/mL
Q259.17
  neutralization IC50: 0.045 µg/mL
BB539.2B13
  neutralization IC50: 0.106 µg/mL
3468_V1_C12
  neutralization IC50: 2.09 µg/mL
[1]
  neutralization IC50: > 50 µg/mL
[2]
  neutralization IC50: > 50 µg/mL
0815_V3_C3
  neutralization IC50: > 50 µg/mL
BS208.B1
  neutralization IC50: 0.031 µg/mL
CNE59
  neutralization IC50: 0.091 µg/mL
3589_V1_C4
  neutralization IC50: 0.025 µg/mL
TH966.8
  neutralization IC50: 0.042 µg/mL
CNE5
  neutralization IC50: < 0.023 µg/mL
KER2018.11
  neutralization IC50: 0.001 µg/mL
MB539.2B7
  neutralization IC50: 0.058 µg/mL
CNE3
  neutralization IC50: 0.079 µg/mL
RW020.2
  neutralization IC50: 0.103 µg/mL
TH976.17
  neutralization IC50: > 50 µg/mL
3415.v1.c1
  neutralization IC50: 0.149 µg/mL
C4118.09
  neutralization IC50: 0.037 µg/mL
6095_V1_C10
  neutralization IC50: 0.242 µg/mL
[3]
  neutralization IC50: > 50 µg/mL
0330.v4.c3
  neutralization IC50: 0.018 µg/mL
Q23.17
  neutralization IC50: 0.007 µg/mL
6545_V4_C1
  neutralization IC50: 0.095 µg/mL
[4]
  neutralization IC50: > 50 µg/mL
3718.v3.c11
  neutralization IC50: 0.05 µg/mL
C1080.c3
  neutralization IC50: 0.004 µg/mL
MI369.A5
  neutralization IC50: 0.058 µg/mL
KNH1209.18
  neutralization IC50: 0.367 µg/mL
3301_V1_C24
  neutralization IC50: 0.281 µg/mL
C2101.c1
  neutralization IC50: 0.026 µg/mL
C3347.c11
  neutralization IC50: 0.038 µg/mL
R3265.c6
  neutralization IC50: 1.3 µg/mL
UG037.8
  neutralization IC50: 0.021 µg/mL
1JO8-ZM109 V1V2 scaffold
  EC50 (read off the curve): 0.5 µg/mL
SO18.18 (HIV-1)
  neutralization IC80: 0.227 µg/mL
[5]
  neutralization IC80: > 50 µg/mL
ZM106.9 (HIV-1)
  neutralization IC80: 6.58 µg/mL
[6]
  neutralization IC80: > 50 µg/mL
DU422.01 (HIV-1)
  neutralization IC80: 15.8 µg/mL
CNE58 (HIV-1)
  neutralization IC80: 0.068 µg/mL
TZBD.02 (HIV-1)
  neutralization IC80: 1.3 µg/mL
6785.V5.C14 (HIV-1)
  neutralization IC80: 0.094 µg/mL
6644.V2.C33 (HIV-1)
  neutralization IC80: 0.12 µg/mL
DU151.02 (HIV-1)
  neutralization IC80: 0.057 µg/mL
ZM109.4 (HIV-1)
  neutralization IC80: 2.64 µg/mL
TV1.29 (HIV-1)
  neutralization IC80: 0.044 µg/mL
0077_V1_C16 (HIV-1)
  neutralization IC80: 0.343 µg/mL
ZM197.7 (HIV-1)
  neutralization IC80: 1.92 µg/mL
CAP244.D3 (HIV-1)
  neutralization IC80: 0.362 µg/mL
DU123.06 (HIV-1)
  neutralization IC80: 0.477 µg/mL
MW965.26 (HIV-1)
  neutralization IC80: 49.9 µg/mL
BR025.9 (HIV-1)
  neutralization IC80: 0.215 µg/mL
3637.V5.C3 (HIV-1)
  neutralization IC80: > 50 µg/mL

## monoclonal antibody PG16
Q461.e2
  neutralization IC50: 4.11 µg/mL
6540.v4.c1
  neutralization IC50: 0.017 µg/mL
Q168.a2
  neutralization IC50: 0.031 µg/mL
0260.v5.c36
  neutralization IC50: 2.1 µg/mL
MS208.A1
  neutralization IC50: 0.047 µg/mL
Q769.d22
  neutralization IC50: 0.01 µg/mL
Q842.d12
  neutralization IC50: 0.001 µg/mL
R1166.c1
  neutralization IC50: 0.587 µg/mL
R2184.c4
  neutralization IC50: 0.28 µg/mL
620345.c1
  neutralization IC50: > 50 µg/mL
Q769.h5
  neutralization IC50: 0.002 µg/mL
KER2008.12
  neutralization IC50: 0.006 µg/mL
CNE55
  neutralization IC50: 1.37 µg/mL
BI369.9A
  neutralization IC50: 0.007 µg/mL
MB201.A1
  neutralization IC50: 0.001 µg/mL
BB201.B42
  neutralization IC50: 0.003 µg/mL
M02138
  neutralization IC50: 0.022 µg/mL
Q259.17
  neutralization IC50: 0.028 µg/mL
BB539.2B13
  neutralization IC50: 0.012 µg/mL
3468_V1_C12
  neutralization IC50: 2.38 µg/mL
[1]
  neutralization IC50: > 50 µg/mL
[2]
  neutralization IC50: > 50 µg/mL
0815_V3_C3
  neutralization IC50: > 50 µg/mL
BS208.B1
  neutralization IC50: 0.004 µg/mL
CNE59
  neutralization IC50: 0.113 µg/mL
3589_V1_C4
  neutralization IC50: 0.728 µg/mL
TH966.8
  neutralization IC50: 0.008 µg/mL
CNE5
  neutralization IC50: < 0.023 µg/mL
KER2018.11
  neutralization IC50: < 0.0006 µg/mL
MB539.2B7
  neutralization IC50: 0.025 µg/mL
CNE3
  neutralization IC50: 0.173 µg/mL
RW020.2
  neutralization IC50: 0.07 µg/mL
TH976.17
  neutralization IC50: > 50 µg/mL
3415.v1.c1
  neutralization IC50: 0.036 µg/mL
C4118.09
  neutralization IC50: 0.021 µg/mL
6095_V1_C10
  neutralization IC50: < 0.023 µg/mL
[3]
  neutralization IC50: > 50 µg/mL
0330.v4.c3
  neutralization IC50: 0.006 µg/mL
Q23.17
  neutralization IC50: 0.002 µg/mL
6545_V4_C1
  neutralization IC50: 0.068 µg/mL
[4]
  neutralization IC50: > 50 µg/mL
3718.v3.c11
  neutralization IC50: 0.019 µg/mL
C1080.c3
  neutralization IC50: 0.001 µg/mL
MI369.A5
  neutralization IC50: 0.011 µg/mL
KNH1209.18
  neutralization IC50: 0.678 µg/mL
3301_V1_C24
  neutralization IC50: < 0.023 µg/mL
C2101.c1
  neutralization IC50: 0.009 µg/mL
C3347.c11
  neutralization IC50: 0.006 µg/mL
R3265.c6
  neutralization IC50: 0.036 µg/mL
UG037.8
  neutralization IC50: 0.001 µg/mL
SO18.18 (HIV-1)
  neutralization IC80: 0.136 µg/mL
[5]
  neutralization IC80: > 50 µg/mL
ZM106.9 (HIV-1)
  neutralization IC80: > 50 µg/mL
[6]
  neutralization IC80: > 50 µg/mL
DU422.01 (HIV-1)
  neutralization IC80: 49.9 µg/mL
CNE58 (HIV-1)
  neutralization IC80: < 0.023 µg/mL
TZBD.02 (HIV-1)
  neutralization IC80: 0.175 µg/mL
6785.V5.C14 (HIV-1)
  neutralization IC80: < 0.023 µg/mL
6644.V2.C33 (HIV-1)
  neutralization IC80: > 50 µg/mL
DU151.02 (HIV-1)
  neutralization IC80: < 0.023 µg/mL
ZM109.4 (HIV-1)
  neutralization IC80: > 50 µg/mL
TV1.29 (HIV-1)
  neutralization IC80: 0.15 µg/mL
0077_V1_C16 (HIV-1)
  neutralization IC80: 0.075 µg/mL
ZM197.7 (HIV-1)
  neutralization IC80: 6.67 µg/mL
CAP244.D3 (HIV-1)
  neutralization IC80: 0.058 µg/mL
DU123.06 (HIV-1)
  neutralization IC80: 0.163 µg/mL
MW965.26 (HIV-1)
  neutralization IC80: > 50 µg/mL
BR025.9 (HIV-1)
  neutralization IC80: 0.049 µg/mL
3637.V5.C3 (HIV-1)
  neutralization IC80: > 50 µg/mL
